Target: HLA-A*02:01 (Homo sapiens, UniProt P04439, D140Y/D185E/D98H/E176V/E277Q/G131W/G231S/I119V/I121R/I166T/I218V/L300P/L318F/N151K/N90K/P208A/P217A/Q86G/Q94H/R138H/R169H/T345S)
Experiment: MHC binding assay (UV-ligand exchange, beta2m ELISA, peptide exchange yield)
Conditions: MHC class I binding score; binding to HLA-A*02:01 ranged by peptide exchange yield (UV-ligand exchange, β2m ELISA)
Excerpt: Candidate peptides for T cell based therapies according to the present invention were further tested for their MHC binding capacity (affinity). The individual peptide-MHC complexes were produced by UV-ligand exchange, where a UV-sensitive peptide is cleaved upon UV-irradiation, and exchanged with the peptide of interest as analyzed. Only peptide candidates that can effectively bind and stabilize the peptide-receptive MHC molecules prevent dissociation of the MHC complexes. To determine the yield of the exchange reaction, an ELISA was performed based on the detection of the light chain (β2m) of stabilized MHC complexes. The assay was performed as generally described in Rodenko et al. (Rodenko et al., 2006).
96 well MAXISorp plates (NUNC) were coated over night with 2 ug/ml streptavidin in PBS at room temperature, washed 4× and blocked for 1 h at 37° C. in 2% BSA containing blocking buffer. Refolded HLA-A*02:01/MLA-001 monomers served as standards, covering the range of 15-500 ng/ml. Peptide-MHC monomers of the UV-exchange reaction were diluted 100 fold in blocking buffer. Samples were incubated for 1 h at 37° C., washed four times, incubated with 2 ug/ml HRP conjugated anti-β2m for 1 h at 37° C., washed again and detected with TMB solution that is stopped with […]. Absorption was measured at 450 nm. Candidate peptides that show a high exchange yield (preferably higher than 50%, most preferred higher than 75%) are generally preferred for a generation and production of antibodies or fragments thereof, and/or T cell receptors or fragments thereof, as they show sufficient avidity to the MHC molecules and prevent dissociation of the MHC complexes.

Question: For “4 (RLAELTVDEFL; listed as Homo sapiens) [compound 4]”, which Peptide exchange is on record?
Answer: ″+++″ (≥50 = +++)

Question: How did the Peptide exchange turn out when “6 (FLAELPGSLSL; listed as Homo sapiens) [compound 6]” was run?
Answer: ″+++″ (≥50 = +++)

Question: How did the Peptide exchange turn out when “8 (ALMLQGVDLL; listed as Homo sapiens) [compound 8]” was run?
Answer: ″+++″ (≥50 = +++)

Question: With “14 (FLDKPEDVLL; listed as Homo sapiens) [compound 14]” as the substance, how does the Peptide exchange read?
Answer: ″++″ (≥20% = ++)

Question: For “15 (LQLDKEFQL; listed as Homo sapiens) [compound 15]”, which Peptide exchange is on record?
Answer: ″+++″ (≥50 = +++)

Question: With “16 (VLVDQSWVL; listed as Homo sapiens) [compound 16]” as the substance, how does the Peptide exchange read?
Answer: ″+++″ (≥50 = +++)

Question: How did the Peptide exchange turn out when “20 (YLKDGDVML; listed as Homo sapiens) [compound 20]” was run?
Answer: ″+++″ (≥50 = +++)

Question: “23 (FLDANGHFV; listed as Homo sapiens) [compound 23]” was tested. Which Peptide exchange did it give?
Answer: ″+++″ (≥50 = +++)

Question: How did the Peptide exchange turn out when “24 (VLDGVLMEL; listed as Homo sapiens) [compound 24]” was run?
Answer: ″+++″ (≥50 = +++)

Question: Which Peptide exchange does the source give for “25 (SLADRLIGV; listed as Homo sapiens) [compound 25]” here?
Answer: ″++++″ (≥75% = ++++)

Question: How did the Peptide exchange turn out when “26 (GLASKENFSNVSL; listed as Homo sapiens) [compound 26]” was run?
Answer: ″++″ (≥20% = ++)

Question: “27 (LLADEDSSYL; listed as Homo sapiens) [compound 27]” was tested. Which Peptide exchange did it give?
Answer: ″++″ (≥20% = ++)

Question: For “28 (ALTEIQEFI; listed as Homo sapiens) [compound 28]”, which Peptide exchange is on record?
Answer: ″++++″ (≥75% = ++++)

Question: With “29 (QMLDVAIRV; listed as Homo sapiens) [compound 29]” as the substance, how does the Peptide exchange read?
Answer: ″+++″ (≥50 = +++)

Question: How did the Peptide exchange turn out when “30 (GLSSAYGGL; listed as Homo sapiens) [compound 30]” was run?
Answer: ″+″ (≥10% = +)

Question: “33 (ALWEKNTHL; listed as Homo sapiens) [compound 33]” was tested. Which Peptide exchange did it give?
Answer: ″+++″ (≥50 = +++)

Question: For “34 (ILLEKSVSV; listed as Homo sapiens) [compound 34]”, which Peptide exchange is on record?
Answer: ″+++″ (≥50 = +++)

Question: “35 (KLLDLTVRI; listed as Homo sapiens) [compound 35]” was tested. Which Peptide exchange did it give?
Answer: ″+++″ (≥50 = +++)

Question: How did the Peptide exchange turn out when “36 (GLLESPSIFNFTA; listed as Homo sapiens) [compound 36]” was run?
Answer: ″+++″ (≥50 = +++)

Question: With “40 (ALSNVIHKV; listed as Homo sapiens) [compound 40]” as the substance, how does the Peptide exchange read?
Answer: ″++″ (≥20% = ++)

Question: How did the Peptide exchange turn out when “41 (ILDDSFKLL; listed as Homo sapiens) [compound 41]” was run?
Answer: ″++″ (≥20% = ++)

Question: With “43 (TLDAAQPRV; listed as Homo sapiens) [compound 43]” as the substance, how does the Peptide exchange read?
Answer: ″++″ (≥20% = ++)

Question: How did the Peptide exchange turn out when “44 (SLESKLTSV; listed as Homo sapiens) [compound 44]” was run?
Answer: ″+++″ (≥50 = +++)

Question: Which Peptide exchange does the source give for “45 (ALAELLHGA; listed as Homo sapiens) [compound 45]” here?
Answer: ″+++″ (≥50 = +++)

Question: For “46 (GLDDRYSLV; listed as Homo sapiens) [compound 46]”, which Peptide exchange is on record?
Answer: ″+++″ (≥50 = +++)

Question: For “48 (FLDASDPAL; listed as Homo sapiens) [compound 48]”, which Peptide exchange is on record?
Answer: ″++″ (≥20% = ++)

Question: Which Peptide exchange does the source give for “50 (TLMAEMHVV; listed as Homo sapiens) [compound 50]” here?
Answer: ″+++″ (≥50 = +++)

Question: “51 (QVWEIQHTV; listed as Homo sapiens) [compound 51]” was tested. Which Peptide exchange did it give?
Answer: ″++″ (≥20% = ++)

Question: For “52 (ALDSSNSMQTI; listed as Homo sapiens) [compound 52]”, which Peptide exchange is on record?
Answer: ″++″ (≥20% = ++)

Question: With “53 (FLLGSEIKL; listed as Homo sapiens) [compound 53]” as the substance, how does the Peptide exchange read?
Answer: ″+++″ (≥50 = +++)

Question: For “54 (ALLNGEYLLAA; listed as Homo sapiens) [compound 54]”, which Peptide exchange is on record?
Answer: ″+++″ (≥50 = +++)

Question: “56 (VLFTDEGVPKFL; listed as Homo sapiens) [compound 56]” was tested. Which Peptide exchange did it give?
Answer: ″++″ (≥20% = ++)

Question: For “57 (NLLEKENYL; listed as Homo sapiens) [compound 57]”, which Peptide exchange is on record?
Answer: ″+++″ (≥50 = +++)

Question: “58 (AMADKMDMSL; listed as Homo sapiens) [compound 58]” was tested. Which Peptide exchange did it give?
Answer: ″++″ (≥20% = ++)

Question: “60 (VLDEDEPRFL; listed as Homo sapiens) [compound 60]” was tested. Which Peptide exchange did it give?
Answer: ″++″ (≥20% = ++)

Question: With “61 (KLLKLFQGV; listed as Homo sapiens) [compound 61]” as the substance, how does the Peptide exchange read?
Answer: ″+++″ (≥50 = +++)

Question: For “62 (YLAPENGYL; listed as Homo sapiens) [compound 62]”, which Peptide exchange is on record?
Answer: ″++″ (≥20% = ++)

Question: How did the Peptide exchange turn out when “63 (KLFSILSTV; listed as Homo sapiens) [compound 63]” was run?
Answer: ″++″ (≥20% = ++)

Question: Which Peptide exchange does the source give for “66 (GLDDGPDFL; listed as Homo sapiens) [compound 66]” here?
Answer: ″++″ (≥20% = ++)

Question: For “67 (SLNDLEKDVMLL; listed as Homo sapiens) [compound 67]”, which Peptide exchange is on record?
Answer: ″+++″ (≥50 = +++)

Question: Which Peptide exchange does the source give for “68 (SILQFVHMV; listed as Homo sapiens) [compound 68]” here?
Answer: ″+++″ (≥50 = +++)

Question: With “69 (GMLNEAEGKAIKL; listed as Homo sapiens) [compound 69]” as the substance, how does the Peptide exchange read?
Answer: ″++″ (≥20% = ++)

Question: Which Peptide exchange does the source give for “70 (MISELEVRL; listed as Homo sapiens) [compound 70]” here?
Answer: ″+++″ (≥50 = +++)

Question: For “71 (RLWTEIPTAI; listed as Homo sapiens) [compound 71]”, which Peptide exchange is on record?
Answer: ″+++″ (≥50 = +++)

Question: With “72 (YLLDYPNNLL; listed as Homo sapiens) [compound 72]” as the substance, how does the Peptide exchange read?
Answer: ″+++″ (≥50 = +++)

Question: Which Peptide exchange does the source give for “73 (YLFDIAVSM; listed as Homo sapiens) [compound 73]” here?
Answer: ″+++″ (≥50 = +++)

Question: How did the Peptide exchange turn out when “74 (YLMGFLHAV; listed as Homo sapiens) [compound 74]” was run?
Answer: ″+++″ (≥50 = +++)

Question: How did the Peptide exchange turn out when “75 (EMIENIQSV; listed as Homo sapiens) [compound 75]” was run?
Answer: ″++″ (≥20% = ++)

Question: With “76 (YLIGEKQHYL; listed as Homo sapiens) [compound 76]” as the substance, how does the Peptide exchange read?
Answer: ″+++″ (≥50 = +++)

Question: How did the Peptide exchange turn out when “77 (SLLKRDFGA; listed as Homo sapiens) [compound 77]” was run?
Answer: ″++″ (≥20% = ++)

Question: For “78 (ALDPELLLL; listed as Homo sapiens) [compound 78]”, which Peptide exchange is on record?
Answer: ″++″ (≥20% = ++)

Question: How did the Peptide exchange turn out when “79 (SLAADQLLKL; listed as Homo sapiens) [compound 79]” was run?
Answer: ″++″ (≥20% = ++)

Question: Which Peptide exchange does the source give for “80 (QVDEVVDIMRV; listed as Homo sapiens) [compound 80]” here?
Answer: ″++″ (≥20% = ++)

Question: Which Peptide exchange does the source give for “81 (ALLSQQTHL; listed as Homo sapiens) [compound 81]” here?
Answer: ″+++″ (≥50 = +++)

Question: How did the Peptide exchange turn out when “82 (QLYEEPDTKL; listed as Homo sapiens) [compound 82]” was run?
Answer: ″++″ (≥20% = ++)

Question: How did the Peptide exchange turn out when “83 (LTIEDGIFEV; listed as Homo sapiens) [compound 83]” was run?
Answer: ″+++″ (≥50 = +++)

Question: Which Peptide exchange does the source give for “84 (SMVEDITGLRL; listed as Homo sapiens) [compound 84]” here?
Answer: ″+++″ (≥50 = +++)

Question: With “85 (ILHDINSDGVL; listed as Homo sapiens) [compound 85]” as the substance, how does the Peptide exchange read?
Answer: ″++″ (≥20% = ++)

Question: How did the Peptide exchange turn out when “86 (KVFPGKISV; listed as Homo sapiens) [compound 86]” was run?
Answer: ″++″ (≥20% = ++)

Question: “87 (LLFDAPDLRL; listed as Homo sapiens) [compound 87]” was tested. Which Peptide exchange did it give?
Answer: ″+++″ (≥50 = +++)
